From the supplement of paper PMC9170038

System: MS2 coat protein
Experiment: apparent KD of MS2 coat protein; designed switch direction (-1 OFF switch, 1 ON switch): 1; higher = weaker reporter binding
Method in brief: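 The buffer was Tris-HCl pH 7.5 with KCl, MgCl2, BSA, DTT, tRNA and Tween-20. In it, SNAP-549-labelled MS2 coat protein was titrated in doubling steps from 0.7 or 1.5 nM to 3 µM over chip-bound RNA switches transcribed by stalled E. coli RNA polymerase on Illumina chips. Apparent KD is the per-design median over clusters of curve fits to normalised fluorescence.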

[1] = Eterna round: R95, input ligand: FMN 200 uM
[2] = Eterna round: R95, input ligand: microRNA oligo, concentration not stated
[3] = Eterna round: R95, input ligand: none
[4] = input ligand: microRNA oligo, concentration not stated

Sequence | apparent KD of MS2 coat protein [1] | apparent KD of MS2 coat protein [2] | apparent KD of MS2 coat protein [3] | apparent KD of MS2 coat protein (input ligand: FMN 200 uM) | apparent KD of MS2 coat protein [4] | apparent KD of MS2 coat protein (input ligand: none)
UGAAAACAUGAGGAUCACCCAUGUAUUAUUAUGGGAGGAUAUGGGAAUUAAUUAAUUAAACCAGAAGGCCUAAAGU [Mat - Same State 1 - D89] (puzzle: Same State 1) | 24.7 nM | 57.2 nM | 52.6 nM |  |  | 
ACAUGACAUGACAUGAGGAUCACCCAUGUGAGGAUCACCCGGGAGGAUAUAGCCCAUGUGGAUCACUAGAAGGCCCUGAGGAUC [Same State NG3 S1] (Eterna round: R96, puzzle: Same State NG 3) |  |  |  | 36.4 nM | 39.5 nM | 49.5 nM
GUUACAUGAGGAUCACCCAUGUAUGUGUGGGAGUAAGUGUCUUAGGAUAUCUAUUAUUUUAAUUAAGAGAAGGAAGAUUGUUGU [JMF's solution 20] (Eterna round: R96, puzzle: Same State NG 3) |  |  |  | 98.6 nM | 113 nM | 122 nM
UUAAUUAUGUAAGGAUAUACAUGAGGAUUUCUCGUAGAAGGUACAUUACAUGAGGAUCACCCAUGUGGGUGUCCGUAGACGCCA [JL SSNG1 1.06] (Eterna round: R96, puzzle: Same State NG 1) |  |  |  |  | 475 nM | 
GGUCGGACUCACAUGAGGAUCACCCAUGUUGCGGAAACGCGGCAGGAUAUCUGUCCGAAAAGGUCAGAGAAGGGUCAACCGACC [Fiskers NG3ss - 62] (Eterna round: R96, puzzle: Same State NG 3) |  |  |  | 644 nM | 141 nM | 199 nM
GCAUGAGAGAUAGGAUAUCGUGUACCUACAUGUGACAUGAGGAUCACCCAUGUGGUAAGUAUGAGCGAGAAGGAUCCGAUAUGU [salish99_SSNG2_r04_1002] (Eterna round: R96, puzzle: Same State NG 2) |  |  |  | 26.6 nM | 44.4 nM | 60.9 nM
UUAUACUCGAGAGGAUAUGCAGAGGAUCACCCUGCAGAAGGCUCGUUAGAGAGGAUAUGCAGAGGAUCACCCUGCAGAAGGCUC [pwkr ssNG DX.24] (Eterna round: R96, puzzle: Same State NG 1) |  |  |  | 45.7 nM | 16.1 nM | 37.4 nM
GCUGCAAUAAACGCCUACAUGAGGAUCACCCAUGUAUGUAGGCAGGAUAUCGUAUGCAAAGCAUACGAGAAGGGCUGUAGUAGC [Mat - Same State NG 3 - JL Mod - D39] (Eterna round: R96, puzzle: Same State NG 3) |  |  |  | 65.3 nM | 97.3 nM | 112 nM
UUGCUCGUGUGAGGAUAUGCCGCCGUUUCGGCUGCAGAAGGUACUCUUGUACAUGAGGAUCACCCAUGUCUCUGUUGUUUCGUG [salish99_SSNG1_r04_938] (Eterna round: R96, puzzle: Same State NG 1) |  |  |  |  | 43.6 nM | 
AAAAAACAUGAGGAUCACCCAUGUAAAAAAAUGGGAGGAUAUCUGAAUUAAUUAAAUUAAGGAGAAGGCCUAAAAA [71%, Same state of confusion2, 4] (Eterna round: R96, puzzle: Same State 1) |  |  |  |  | 192 nM | 
AUAAAACAUGAGGAUCACCCAUGUCAACAAAGUCGAGGAUAUGGGCUAAUAAAAUAAGAACCAGAAGGCGAAUAAU [salish99_ss1_r3_027] (puzzle: Same State 1) | 26.2 nM | 152 nM | 146 nM |  |  | 
AGGACGAGCACAGGAUAUCCGCGGAACAGCCGCGGAGAAGGGUGAAGUCAUGGAAAGAAAAGACAUGAGGAUCACCCAUGUAAA [Ageteerer] (Eterna round: R96, puzzle: Same State NG 1) |  |  |  | 223 nM | 1320 nM | 680 nM
GCUCGAUGAUAGGCCUACAUGAGGAUCACCCAUGUAAGUGGGCAGGAUAUCUAAAUGCAGAAUGUAGAGAAGGGCCCGUCGAGC [SameState NG3 #54] (Eterna round: R96, puzzle: Same State NG 3) |  |  |  | 612 nM | 239 nM | 1460 nM
